Data published in the supplement of paper PMC10567573.

B1: MYBL2 (parent)
chain: FSPSQFLNFWNKQDTLELESPSLT

Variants of: B1
Assay: protein stability index of a GFP-peptide fusion (GPS, HEK-293T) (PSI 1-6); higher = more stable
Details: c terminus: a fixed tail appended
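Further: lentivirally expressed fusions sorted by FACS into six bins by GFP to DsRed ratio, PSI derived from sequencing read proportions per bin multiplied by bin number.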

Protein stability index, by site and new letter:
L23: G 2.27, A 2.08, D 3.49, C 2.71, F 3.38, E 2.26
F6: R 3.66, D 2.59, S 2.31, P 3, L 4.19, C 1.61, H 2.6, Q 3.08, K 2.86, T 1.5, E 4, W 2.7, N 2.21, A 2.02, V 2.39
S2: V 3.06, Y 1.63, T 3, R 2.26, W 2.98
S22: I 2.72, H 2.56, C 4.69, P 1.89, K 3.1, F 3.27, Y 2.61, V 2.95, T 2.82, N 3.17, W 3
P3: S 2.18, F 3.08, R 2.39, E 1.6, V 1.77, N 2.38, I 3.19, K 2.02, W 2.18, Y 3.74, A 3.83, M 2.3, Q 3.52, T 2.94, H 1.94, G 2.41, L 2.69, D 3.71
T15: Q 1.82, N 3, I 2.92, E 2.4, Y 1.38, L 3.22, S 4.29, M 3.12, W 3.33, R 2.54, G 3.51, F 2.34, C 2.54, K 2.68, D 2.09, A 3.05, P 2.48, H 3.8
N11: C 4.67, I 2.5, T 2.79, A 1.4, Y 3.26, D 3.14, E 2.73, G 2.56, S 2.99, Q 2.77, R 2.48, F 2.14, P 2.51, L 3.89
Q5: M 2.95, Y 2.29, G 3.07, F 2.31, W 2.86, R 2.6, S 2.83, A 2.55, T 3.6, N 2.27, D 2.75, C 3.02, P 3.49, K 2.44, H 2.79
E19: I 2.94, P 2.86, T 2.39, L 4.26, A 2.63, F 2.58, D 3.09, Y 2.11, W 2.64, H 2.88, C 3.63, V 2.8, G 1.66, R 2.75, S 2.07, N 3.12
D14: V 3.22, M 2.63, A 2.94, K 4.25, Y 3.5, F 3.92, P 2.98, H 2.39, G 2.94, L 2.6, Q 2.89, S 1.31, C 4.04, R 4.08
L16: C 2.68, G 4.14, F 3.19, V 2.19, Q 3.33, I 2.58, A 3.1, Y 3.49, T 1.5, E 1.26, H 3.68, S 2.5, P 2.29, D 3.85, M 2.56, R 4.02, K 2.75
S4: A 2.14, F 3.04, P 2.14, V 2.57, C 2.91, L 2.12, I 4.06, W 2.35, H 2, Q 4.58, K 2.53, D 1.79, M 3.27, N 3.63, T 3.36, Y 2.98, E 2, G 4.19
P21: G 3.5, E 2.64, T 2.36, Q 2.56, C 2.77, S 2.09, M 3.16, R 2.36, I 3.74, F 3.56, N 3.41, L 3.37, D 2.2, V 2.53, Y 2.69, W 3.86, K 3.01
W10: M 2.17, E 3.51, V 1.89, T 2.98, R 2.62, F 2.18, K 2.8, A 2.48, S 2.91, N 3.38, C 2.5, L 2.06, P 3.45, G 2.93, I 2.28, Y 2.63, D 3.87, Q 3.5, H 2.77
F9: D 2.98, V 3.09, I 3.65, R 2.13, M 1.63, W 2.84, P 2.48, G 1.6, C 2.17, Q 2.15, T 1.96, H 2.43, E 2.43, L 2.98, S 1.83, N 2.29, Y 1.74, K 2.44, A 1.87
S20: C 2.08, Q 3.9, P 1.65, T 2.83, K 2.35, E 1.23, W 2.37, R 2.26, I 2.75, L 1.89, G 2.84, V 2.31, D 2.62, M 3.66, F 2.57
Q13: P 2.06, W 3.25, I 4.44, R 1.21, S 3.98, H 3.41, A 3.54, F 2.17, V 2.94, D 3.51, Y 3.56, N 3.24, T 2.4, M 3.43
L18: M 2.88, S 1.84, C 2.55, F 3.19, T 3.04, Y 3.16, K 2.98, W 5.25, H 1.77, E 3.1, V 3.28, R 2.95, I 2.61, G 2.58, P 2.1, D 2.79, N 1.98, Q 3.72
N8: P 2.91, V 3.44, S 3.58, K 2.74, A 3.07, W 2.9, Y 2.06, R 2.93, L 3.22, M 3.6, Q 2.17, T 3.92, D 2.08, I 4.12, F 4.01
K12: H 2.4, P 3.55, V 4.37, E 2.25, G 4.46, N 2.84, R 2.52, A 2.9, S 2.02, D 3.15, F 2.97, M 3.42, Y 3.78, T 2.59, I 3.21, Q 1.93
L7: R 2.38, P 2.25, A 3.29, V 3.57, I 3.39, T 3.42, M 3.04, K 2.97, Q 2.92, G 2.59, Y 2.76, C 3.24, W 2.38, F 2.6, N 3.1, H 3.34
E17: M 3.58, F 1.84, I 3.94, K 2.48, R 2.45, S 3.58, P 1.74, T 2.41, Q 3.02, N 2.33, A 1.07, D 3.02, W 2.71, Y 2.41, V 3.59, C 2.41, L 3.9, H 2.37
